This assay addresses individual catalytic domain of human MT1-MMP (MT1-CAT) (human, UniProt P50281 114-287, biotin (EZ-Link sulfo-NHS-LC-biotin, 1:20 enzyme-biotin molar ratio) in the Fab binding ELISA only; unlabelled in the competition ELISA and the cleavage assays). The experiment in a line: ELISA. (In an ELISA, binding on a coated surface is turned into a signal by an enzyme label.)

B1: 3E9 Fab (Fab, V domains shown)
VH: EVQLVESGGGLVQPGGSLRLSCAASGFNLYYSSMHWVRQAPGKGLEWVASIYPSYGSTYYADSVKGRFTISADTSKNTAYLQMNSLRAEDTAVYYCARNGRYPGFLKRAHKRLLNFKAYVMDYWGQGTLVTVSS
VL: DIQMTQSPSSLSASVGDRVTITCRASQSVSSAVAWYQQKPGKAPKLLIYSASSLYSGVPSRFSGSRSGTDFTLTISSLQPEDFATYYCQQGSWYLITFGQGTKVEIK
In general, Kd refers to the concentration at which binding is half-saturated. Take B1: the Kd is 45 nM.

B2: 2B5 Fab (Fab, V domains shown)
VH: EVQLVESGGGLVQPGGSLRLSCAASGFNLSYSSMHWVRQAPGKGLEWVASIYPYSGYTYYADSVKGRFTISADTSKNTAYLQMNSLRAEDTAVYYCARIGVNAWAVKMSQRMLATRGSGWYVMDYWGQGTLVTVSS
VL: DIQMTQSPSSLSASVGDRVTITCRASQSVSSAVAWYQQKPGKAPKLLIYSASSLYSGVPSRFSGSRSGTDFTLTISSLQPEDFATYYCQQSSSYPYSPITFGQGTKVEIK
Regarding B2, the Kd is 21 nM.

(Values after publication PMC5356841 (2016).)
